Where no end group is shown, it is not given here. [ ]: non-standard residue; d: D form. pGlu = O=C1CC[C@@H](C(=O)O)N1
Target: T1, MitTxβ (Micrurus tener tener (Texas coral snake), UniProt G9I930 31-149, disulfide bonds)
T1 sequence: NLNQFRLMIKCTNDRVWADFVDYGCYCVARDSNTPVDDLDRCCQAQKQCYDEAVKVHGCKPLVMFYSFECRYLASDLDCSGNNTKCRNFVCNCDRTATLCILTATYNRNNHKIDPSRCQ
Experiment: ITC

B1: MitTxα (natural protein)
chain: [pGlu]IRPAFCYEDPPFFQKCGAFVDSYYFNRSRITCVHFFYGQCDVNQNHFTTMSECNRVCHG
modifications: not fully specified (bridges); also: disulfide bonds, pairing not given here
- Kd: 12.2 ± 3.1 nM
